Experimental data taken from patent US20250327097A1, “ORGANISMS PRODUCING LESS CROTONIC ACID” (Global Bioenergies, priority 2021, published 2025).
Numbering of substitutions follows the chain as printed. In names and notes the source's numbering stands.

B1: I283Q-P284E-N287Q-S322T-N388M-K394R-C430N-L432F-L434W-S436N-dA463 (protein)
chain: MFLKSLREQINLLKRQGDLRIINRPVDSYLEAAAIIRRSTETKAPVPLMTNIKGYPGCSIVGGLAALSSNPEYPLSRVAMSLGLSTTASAQSIVQYLIDGLKKTPYLPVEIDSNSAPCKQNILRGEDASLAHFPIPQVHQHDGNRYVNTWGVFIVESPDGQWCNWSIQRVQYLNDRQMIALVFPSQHISDIWEEWVKIGKPMPYALVQGCEPIVPYIAGLPLLERNVNEAEYIGALYGKGIEVVKCETHDLRVPASSEVVIEGYFAITREGVEGPFGEFAGYQENEQSLQPILSITAISWQDDPIWPVVAEGKPVDEYHTCTGIGDAAAIQNVLLTANLPVSFVWVPLYSACHLMIVSINRHWRQTHPDLTSEQLTKKVGDVIHQTRMSIKLPRIVVLDDDVDPADTESLLWALATRIHPERKRYFYESNIFPWLNCYSEEERHNRKGKRVIIDALLPENHGAISSFDYAYPDDIKQRVLMHWETDFSHD
B2: I283L-N285P-N287T-Q290E-S322T-N388M-K394R-C430A-L432F-L434W-S436N (protein)
chain: B1 chain with Q283L, E284P, N285P, Q287T, Q290E, N430A
B3: P284E-N287Q-S322T-N388M-K394R-C430N-L432F-L434W-S436N-dA463-Y469E (protein)
chain: B1 chain with Q283I, Y469E
B4: I283Q-P284D-N285M-N287T-S322T-N388M-K394R-C430A-L432F-L434W-S436N-G462P-A463P (protein)
chain: B1 chain with E284D, N285M, Q287T, N430A, G462P, A463P
B5: I283T-P284D-N285M-E286H-N287T-S322T-N388M-K394R-C430A-L432F-L434W-S436N-G462P-A463P (protein)
chain: B1 chain with Q283T, E284D, N285M, E286H, Q287T, N430A, G462P, A463P
B6: I283T-N285P-N287T-Q290E-S322T-Q365S-N388M-K394R-C430A-L432F-L434W-S436N-G462P-A463P (protein)
chain: B1 chain with Q283T, E284P, N285P, Q287T, Q290E, Q365S, N430A, G462P, A463P
B7: I283T-P284D-N285L-N287T-S322T-N388M-K394R-C430A-L432F-L434W-S436N-G462P-A463P (protein)
chain: B1 chain with Q283T, E284D, N285L, Q287T, N430A, G462P, A463P
B8: I283H-P284D-N285M-N287T-S322T-N388M-K394R-C430A-L432F-L434W-S436N-G462P-A463P (protein)
chain: B1 chain with Q283H, E284D, N285M, Q287T, N430A, G462P, A463P
B9: I283T-P284D-N285S-N287T-S322T-N388M-K394R-C430A-L432F-L434W-S436N-G462P-A463P (protein)
chain: B1 chain with Q283T, E284D, N285S, Q287T, N430A, G462P, A463P
B10: P284E-N287Q-L289R-S322T-N388M-K394R-C430N-L432F-L434W-S436N-dA463 (protein)
chain: B1 chain with Q283I, L289R
B11: I283T-P284D-N285M-E286A-N287T-S322T-N388M-K394R-C430A-L432F-L434W-S436N-G462P-A463P (protein)
chain: B1 chain with Q283T, E284D, N285M, E286A, Q287T, N430A, G462P, A463P
B12: P284E-N287Q-L289H-S322T-N388M-K394R-C430N-L432F-L434W-S436N-dA463 (protein)
chain: B1 chain with Q283I, L289H
B13: I283T-P284D-N285T-N287T-S322T-N388M-K394R-C430A-L432F-L434W-S436N-G462P-A463P (protein)
chain: B1 chain with Q283T, E284D, N285T, Q287T, N430A, G462P, A463P
B14: N388M-K394R-C430A-L432F-L434W-S436N (protein)
chain: B1 chain with Q283I, E284P, Q287N, T322S, N430A
B15: I283T-P284D-N285M-E286N-N287T-S322T-N388M-K394R-C430A-L432F-L434W-S436N-G462P-A463P (protein)
chain: B1 chain with Q283T, E284D, N285M, E286N, Q287T, N430A, G462P, A463P
B16: P284E-N287Q-S322T-N388M-K394R-C430N-L432F-L434W-S436N-dA463-A470S (protein)
chain: B1 chain with Q283I, A470S
B17: P284D-N287Q-S322T-N388M-K394R-C430N-L432F-L434W-S436N-dA463 (protein)
chain: B1 chain with Q283I, E284D
B18: I283T-P284D-N285V-N287T-S322T-N388M-K394R-C430A-L432F-L434W-S436N-G462P-A463P (protein)
chain: B1 chain with Q283T, E284D, N285V, Q287T, N430A, G462P, A463P
B19: I283C-P284E-N287Q-S322T-N388M-K394R-C430N-L432F-L434W-S436N-dA463 (protein)
chain: B1 chain with Q283C
B20: P284E-N287Q-S322T-N388M-K394R-C430N-L432F-L434W-S436N-dA463-Y469T (protein)
chain: B1 chain with Q283I, Y469T
B21: N388M-K394R-C430N-L432F-L434W-S436N-H444L (protein)
chain: B1 chain with Q283I, E284P, Q287N, T322S, H444L
B22: P284E-N287Q-S322T-N388M-K394R-C430N-L432F-L434W-S436N-dA463-S465A (protein)
chain: B1 chain with Q283I, S465A
B23: I283T-N285P-N287T-L289Y-Q290E-S322T-N388M-K394R-C430A-L432F-L434W-S436N-G462P-A463P (protein)
chain: B1 chain with Q283T, E284P, N285P, Q287T, L289Y, Q290E, N430A, G462P, A463P
B24: P284E-N287Q-S322T-N388M-K394R-C430N-L432F-L434W-S436N-dA463-A470T (protein)
chain: B1 chain with Q283I, A470T
B25: P284E-N287Q-S322T-N388M-K394R-C430N-L432F-L434W-S436N-G462R-dA463 (protein)
chain: B1 chain with Q283I, G462R
B26: S185T-N388M-C430S-L432F-L434W-S436N (protein)
chain: B1 chain with S185T, Q283I, E284P, Q287N, T322S, R394K, N430S
B27: I283T-P284D-N285M-E286G-N287T-S322T-N388M-K394R-C430A-L432F-L434W-S436N-G462P-A463P (protein)
chain: B1 chain with Q283T, E284D, N285M, E286G, Q287T, N430A, G462P, A463P
B28: P284E-N287Q-S322T-N388M-K394R-R422H-C430N-L432F-L434W-S436N-dA463 (protein)
chain: B1 chain with Q283I, R422H
B29: I283T-P284D-N285H-N287T-S322T-N388M-K394R-C430A-L432F-L434W-S436N-G462P-A463P (protein)
chain: B1 chain with Q283T, E284D, N285H, Q287T, N430A, G462P, A463P
B30: I283T-N285P-N287T-L289A-Q290E-S322T-N388M-K394R-C430A-L432F-L434W-S436N-G462P-A463P (protein)
chain: B1 chain with Q283T, E284P, N285P, Q287T, L289A, Q290E, N430A, G462P, A463P
B31: I283T-P284D-N285M-E286D-N287T-S322T-N388M-K394R-C430A-L432F-L434W-S436N-G462P-A463P (protein)
chain: B1 chain with Q283T, E284D, N285M, E286D, Q287T, N430A, G462P, A463P
B32: I283T-N285P-E286D-N287T-Q290E-S322T-N388M-K394R-C430A-L432F-L434W-S436N-G462P-A463P (protein)
chain: B1 chain with Q283T, E284P, N285P, E286D, Q287T, Q290E, N430A, G462P, A463P
B33: I283T-N285P-N287T-Q290E-S322T-Q365M-N388M-K394R-C430A-L432F-L434W-S436N-G462P-A463P (protein)
chain: B1 chain with Q283T, E284P, N285P, Q287T, Q290E, Q365M, N430A, G462P, A463P
B34: I283L-P284E-N287Q-S322T-N388M-K394R-C430N-L432F-L434W-S436N-dA463 (protein)
chain: B1 chain with Q283L

System: 3-methylcrotonic acid
Type: biochemical, Yersinia frederiksenii
Set-up: key: “+” representing a low increase in activity; “++++” representing a high increase in activity

Molecule	Activity relative to WT
B1	++++
B2	++++
B3	++++
B4	++++
B5	++++
B6	++++
B7	++++
B8	++++
B9	++++
B10	++++
B11	++++
B12	++++
B13	++++
B14	+
B15	++++
B16	++++
B17	++++

Molecule	Activity relative to WT
B18	++++
B19	++++
B20	++++
B21	+
B22	++++
B23	++++
B24	++++
B25	++++
B26	+
B27	++++
B28	++++
B29	++++
B30	++++
B31	++++
B32	++++
B33	++++
B34	++++
